# Measurements as given in patent publication US20250009896.
# System: T1, Free DX600 peptide
# T1 sequence: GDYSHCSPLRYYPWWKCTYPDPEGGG
substance,measurement,value
"Recombinant human angiotensin-converting enzyme 2 (ACE2) protein, carrier-free (R&D Systems)",initial velocity of ACE2 cleavage of fluorogenic substrate,there is no appreciable difference in the initial velocity of ACE2 cleavage in the presence of Ligand in comparison to the free DX600 peptide alone
